Test results from patent publication WO2024101382A1 (dated 2024).

Target: T1, Recombinant mouse LSR-Fc (mouse, UniProt Q99KG5 36-206, limits assumed)
T1 construct: not shown: Fc part
T1 sequence (looked up): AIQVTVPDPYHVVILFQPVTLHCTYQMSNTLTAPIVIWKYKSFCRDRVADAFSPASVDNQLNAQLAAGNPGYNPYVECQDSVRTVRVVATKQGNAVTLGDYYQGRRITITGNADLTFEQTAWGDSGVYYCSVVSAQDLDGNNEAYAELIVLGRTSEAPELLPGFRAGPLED
Test: ELISA, LSR-Fc coated on plate

B1: Chicken mouse chimeric anti-LSR antibody (#27-6mF18) (antibody, V domains shown)
VH: AVTLDESGGGLQMPGGALSLVCRASGFDFSSYEMQWIRQAPGKGLEWVAGISGAGSGTRYGSAVKGRATISRDNGQSTVRLQLNNLRAEDTGIYFCARSSNIDAWGHGTEVTVST
VL: ALTQPASVSANLGGTVKITCSGGGRYAESYYYGWYQQKSPGSTPVTVIYWNDKRPSNIPSRFSGSLSGSTNTLTITGVQVEDEAVYFCGSYEDSRSAFGAGTTLTV
notes: Chicken-mouse chimeric antibody; also called anti-LSR monoclonal antibody #27-6 mF-18
Question: Does B1 bind?
Answer: Result: binds
